Assay results from patent US20200332017A1 (SALUBRIS CHENGDU BIOTECH, published 2020).

Key:
[1] = target: T1, Human CD40-his protein (Acro biosystems, Cat # CD0-H5228) (human, UniProt P25942 21-193); experiment: SPR, Biacore; antibody captured, human CD40-his flowed
T1 construct: Bought reagent; not shown: his tag
Text: Briefly, goat anti-mouse IgG (GE healthcare, Cat # BR100838, Mouse Antibody Capture Kit) was covalently linked to a CM5 or a Protein G chip (carboxy methyl dextran coated chip) via primary amines, using a standard amine coupling kit provided by Biacore (GE healthcare, Pittsburgh, Pa., USA). Un-reacted moieties on the biosensor surface were blocked with ethanolamine. […] Then, human CD40-his (Acro biosystems, Cat # CD0-H5228) or cynomolgus monkey CD40-his protein (Acro biosystems, Cat # CD0-052H6) in HBS EP buffer (provided by Biacore) was flowed onto the chip at a flow rate of 30 μL/min. The antigen-antibody association kinetics was followed for 2 minutes and the dissociation kinetics was followed for 10 minutes. The association and dissociation curves were fit to a 1:1 Langmuir binding model using BIA evaluation software.

[2] = target: T2, human CD40-Fc protein (amino acid residue 21-193 of SEQ ID NO: 67 linked to N-terminus of amino acid residue … (human, biotin-labeled in the capture ELISA and in the benchmark blocking ELISA; unlabeled when coated in the ligand blocking ELISA); experiment: capture ELISA, biotin human CD40-Fc; mAb at 80 ng/mL
T2 construct: also called biotin-labeled human CD40-Fc; human CD40-Fc-biotin
T2 sequence (chain, as listed by the source): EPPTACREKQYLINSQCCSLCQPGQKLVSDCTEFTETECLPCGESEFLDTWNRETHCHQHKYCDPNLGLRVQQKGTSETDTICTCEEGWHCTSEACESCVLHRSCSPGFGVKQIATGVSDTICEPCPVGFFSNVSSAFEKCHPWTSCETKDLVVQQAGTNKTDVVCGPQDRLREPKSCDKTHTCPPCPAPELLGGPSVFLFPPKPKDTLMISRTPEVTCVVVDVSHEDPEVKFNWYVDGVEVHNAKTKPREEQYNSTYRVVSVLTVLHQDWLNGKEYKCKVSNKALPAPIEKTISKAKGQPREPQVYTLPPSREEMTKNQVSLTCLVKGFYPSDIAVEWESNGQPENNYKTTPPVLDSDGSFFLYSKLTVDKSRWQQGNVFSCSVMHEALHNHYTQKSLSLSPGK
Method: (§1) Plates were washed 4 times with wash buffer (PBS+0.05% Tween-20, PBST) and then blocked with 200 μl/well blocking buffer (5% w/v non-fatty milk in PBST) for 2 hours at 37° C. […] After a final wash, plates were incubated with 100 μl/well ELISA substrate TMB (Innoreagents, Cat # TMB-S-002). The reaction was stopped in 15 minutes at 25° C. with 50 μl/well 1M H₂SO₄, and the absorbance was read at 450 nm and plotted against antibody concentration. Data were analyzed using Graphpad Prism software and EC₅₀ values were reported.

[3] = target: T2, human CD40-Fc protein (amino acid …); experiment: capture ELISA, biotin human CD40-Fc; mAb at 0.64 ng/mL
Method: as §1

[4] = target: T2, human CD40-Fc protein (amino acid …); experiment: capture ELISA, biotin human CD40-Fc; mAb at 16 ng/mL
Method: as §1

[5] = target: T2, human CD40-Fc protein (amino acid …); experiment: capture ELISA; antibody captured, biotin-labeled human CD40-Fc in solution
Method: as §1

[6] = target: T2, human CD40-Fc protein (amino acid …); experiment: capture ELISA, biotin human CD40-Fc; mAb at 2000 ng/mL
Method: as §1

[7] = target: T2, human CD40-Fc protein (amino acid …); experiment: capture ELISA, biotin human CD40-Fc; mAb at 10000 ng/mL
Method: as §1

[8] = target: T2, human CD40-Fc protein (amino acid …); experiment: capture ELISA, biotin human CD40-Fc; mAb at 3.2 ng/mL
Method: as §1

[9] = target: T2, human CD40-Fc protein (amino acid …); experiment: capture ELISA, biotin human CD40-Fc; mAb at 400 ng/mL
Method: as §1

[10] = target: T2, human CD40-Fc protein (amino acid …); experiment: capture ELISA, biotin human CD40-Fc; mAb at 0 ng/mL (blank)
Method: as §1

T1 sequence (P25942 21-193 limits assumed): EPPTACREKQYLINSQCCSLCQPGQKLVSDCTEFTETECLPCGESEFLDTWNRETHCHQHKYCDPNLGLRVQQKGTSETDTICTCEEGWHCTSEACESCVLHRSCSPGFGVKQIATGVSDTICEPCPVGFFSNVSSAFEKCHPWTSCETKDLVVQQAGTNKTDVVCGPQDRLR

Row | Kd [1] [nM] | koff [1] [s⁻¹] | kon [1] [M⁻¹ s⁻¹] | absorbance at 450 nm [2] [OD450] | absorbance at 450 nm [3] [OD450] | absorbance at 450 nm [4] [OD450] | EC50 [5] [ng/mL] | absorbance at 450 nm [6] [OD450] | absorbance at 450 nm [7] [OD450] | absorbance at 450 nm [8] [OD450] | absorbance at 450 nm [9] [OD450] | absorbance at 450 nm [10] [OD450] | Binder
1 | 11.6 | 0.00881 | 763000 |  |  |  |  |  |  |  |  |  | humanized antibody huC1C1-V6 (antibody, human IgG1, kappa, V domains shown, Human IgG1/kappa) VH: EVQLVESGGGVVQPGRSLRLSCAASGFTFSNYGMSWVRQAPGKGLEWVASISSGGDDTYYPDNVKGRCTISRDNSKNTLYLQMNSLRAEDTAVYYCTRAGGKAMDYWGQGTLVTVSS VL: EIVLTQSPATLSLSPGERATLSCRASQSIRDNLHWYQQKPGQAPRLLIYYASQSISGIPARFSGSGSGTDFTLTISSLEPEDFAVYYCQQFNSWPLTFGQGTKVEIKR
2 |  |  |  | 1.12 | 0.035 | 0.353 | 0.382 | 1.78 | 1.9 | 0.083 | 1.73 | 0.028 | humanized antibody huC1C1-V1 (antibody, human IgG1, kappa, V domains shown, Human IgG1/kappa; also called humanized C1C1-V1) VH: EVQLVESGGGVVQPGRSLRLSCAASGFTFSNYGMSWVRQAPGKGLEWVASISSGGDDTYYPDNVKGRCTISRDNSKNTLYLQMNSLRAEDTAVYYCTRAGGKAMDYWGQGTLVTVSS VL: EIVLTQSPATLSLSPGERATLSCRASQSIRDNLHWYQQKPGQSPRLLINYASQSISGIPARFSGSGSGTDFTLTISSLEPEDFAVYFCQQFNSWPLTFGQGTKVEIKR
3 |  |  |  | 1.15 | 0.032 | 0.357 | 0.336 | 1.71 | 1.8 | 0.083 | 1.72 | 0.024 | humanized antibody huC1C1-V3 (antibody, human IgG1, kappa, V domains shown, Human IgG1/kappa) VH: EVQLVESGGGVVQPGRSLRLSCAASGFTFSNYGMSWVRQAPGKGLEWVASISSGGDDTYYPDNVKGRCTISRDNSKNTLYLQMNSLRAEDTAVYYCTRAGGKAMDYWGQGTLVTVSS VL: EIVLTQSPATLSLSPGERATLSCRASQSIRDNLHWYQQKPGQAPRLLINYASQSISGIPARFSGSGSGTDFTLTISSLEPEDFAVYFCQQFNSWPLTFGQGTKVEIKR
4 |  |  |  | 1.1 | 0.033 | 0.34 | 0.355 | 1.68 | 1.77 | 0.083 | 1.66 | 0.027 | humanized antibody huC1C1-V5 (antibody, human IgG1, kappa, V domains shown, Human IgG1/kappa; also called humanized C1C1-V5) VH: EVQLVESGGGVVQPGRSLRLSCAASGFTFSNYGMSWVRQAPGKGLEWVASISSGGDDTYYPDNVKGRCTISRDNSKNTLYLQMNSLRAEDTAVYYCTRAGGKAMDYWGQGTLVTVSS VL: EIVLTQSPATLSLSPGERATLSCRASQSIRDNLHWYQQKPGQSPRLLINYASQSISGIPARFSGSGSGTDFTLTISSLEPEDFAVYYCQQFNSWPLTFGQGTKVEIKR
5 |  |  |  | 1.02 | 0.029 | 0.3 | 0.428 | 1.72 | 1.82 | 0.073 | 1.62 | 0.027 | humanized antibody huC1C1-V2 (antibody, human IgG1, kappa, V domains shown, Human IgG1/kappa) VH: EVQLVESGGGVVQPGRSLRLSCAASGFTFSNYGMSWVRQAPGKGLEWVASISSGGDDTYYPDNVKGRFTISRDNSKNTLYLQMNSLRAEDTAVYYCTRAGGKAMDYWGQGTLVTVSS VL: EIVLTQSPATLSLSPGERATLSCRASQSIRDNLHWYQQKPGQSPRLLINYASQSISGIPARFSGSGSGTDFTLTISSLEPEDFAVYFCQQFNSWPLTFGQGTKVEIKR
6 |  |  |  | 1.25 | 0.039 | 0.459 | 0.267 | 1.7 | 1.84 | 0.103 | 1.63 | 0.025 | humanized antibody huC1C1-V4 (antibody, human IgG1, kappa, V domains shown, Human IgG1/kappa) VH: EVQLVESGGGVVQPGRSLRLSCAASGFTFSNYGMSWVRQAPGKGLEWVASISSGGDDTYYPDNVKGRCTISRDNSKNTLYLQMNSLRAEDTAVYYCTRAGGKAMDYWGQGTLVTVSS VL: EIVLTQSPATLSLSPGERATLSCRASQSIRDNLHWYQQKPGQSPRLLIYYASQSISGIPARFSGSGSGTDFTLTISSLEPEDFAVYFCQQFNSWPLTFGQGTKVEIKR
